Measurements taken from patent publication US20200207850A1 (MacroGenics, published 2020).

Key:
[1] = target: T1, B7-H3 on A498 and JIMT-1 target cells (UniProt Q5ZPR3 29-534, limits assumed); assay: cell-based or functional assay
T1 sequence (looked up): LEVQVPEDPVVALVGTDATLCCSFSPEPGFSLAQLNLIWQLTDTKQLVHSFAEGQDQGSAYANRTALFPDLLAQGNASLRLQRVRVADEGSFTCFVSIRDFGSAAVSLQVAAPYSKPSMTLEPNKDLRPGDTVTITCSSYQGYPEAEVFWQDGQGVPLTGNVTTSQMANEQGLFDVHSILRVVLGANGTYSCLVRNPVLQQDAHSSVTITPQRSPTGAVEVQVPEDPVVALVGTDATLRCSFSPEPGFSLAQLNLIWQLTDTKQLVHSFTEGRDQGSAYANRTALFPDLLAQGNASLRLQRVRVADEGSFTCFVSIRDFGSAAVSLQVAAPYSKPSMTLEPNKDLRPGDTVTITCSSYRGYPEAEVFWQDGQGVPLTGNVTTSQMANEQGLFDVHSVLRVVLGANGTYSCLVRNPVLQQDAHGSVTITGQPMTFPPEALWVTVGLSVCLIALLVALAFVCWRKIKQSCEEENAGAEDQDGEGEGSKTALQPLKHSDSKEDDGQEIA

[2] = target: T2, CD8 on human T cells (PBMC) (human, UniProt P01732 22-235); assay: flow cytometry, binding to human CD5+/CD4- cells (bear CD8 and CD3) (MFI)
T2 construct: whole, on cells; The CD8+ (CD5+ CD4-) cells also carry CD3; also called CD5+ CD4- gated PBMC; CD8+ T cells

[3] = target: T3, 5T4 on JIMT-1 target cells (UniProt Q13641 32-420, limits assumed); assay: cell-based or functional assay
T3 sequence (looked up): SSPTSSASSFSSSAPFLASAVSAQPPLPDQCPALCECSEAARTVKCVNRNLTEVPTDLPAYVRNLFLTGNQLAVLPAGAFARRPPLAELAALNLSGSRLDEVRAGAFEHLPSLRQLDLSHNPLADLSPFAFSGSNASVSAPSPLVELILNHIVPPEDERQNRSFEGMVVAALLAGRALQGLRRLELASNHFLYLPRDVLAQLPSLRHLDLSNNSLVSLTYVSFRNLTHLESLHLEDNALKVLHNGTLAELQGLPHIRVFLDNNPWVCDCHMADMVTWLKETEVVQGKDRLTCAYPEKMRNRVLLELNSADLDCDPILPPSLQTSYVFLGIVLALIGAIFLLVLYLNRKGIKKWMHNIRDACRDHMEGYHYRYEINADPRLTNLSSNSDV

[4] = target: T2, CD8 on human T cells (PBMC); assay: flow cytometry on human PBMC, CD5+/CD4- gated cells (bear CD8 and CD3), detection anti-human Fc (MFI)
[5] = target: HIV env on Jurkat 522 FY cells (HIV); assay: cell-based or functional assay
[6] = target: HIV env on Jurkat 522 FY cells (HIV); assay: cell-based or functional assay; remark: listed apart in the source
[7] = target: T2, CD8 on human T cells (PBMC); assay: flow cytometry on human PBMC, CD5+/CD4- gated cells (bear CD8 and CD3), detection anti-human Fc (MFI); remark: listed apart in the source
Description: Human blood was lysed with ACK lysing buffer, washed 2× with PBS and re-suspended in FACS buffer contained 10% Human AB serum and incubated at room temperature for 20 minutes. Thereafter, the cells were pelleted by centrifugation and re-suspended (4×10⁶ cells/mL) in FACS buffer. 50 μL of serial titrated Tri-Specific Binding Molecules were added into wells of a 96-well deep plate. 50 μL of the cells (4×10⁶ cells/mL) well-mixed cells in FACS buffer containing 0.01% sodium azide were then added into corresponding wells and mixed thoroughly using a pipette. The plate was incubated in the dark for about 45 minutes at 2-8° C. At the end of incubation, the cells were washed twice by adding 300 μL of FACS buffer to each well, the plate was centrifuged at 1,200 rpm for 5 minutes, and the supernatant was discarded. The cell pellets were re-suspended in 100 μL mixture of goat anti-Human IgG Fcγ-PE, CD5-APC and CD4-PerCP5.5 prepared in FACS buffer containing 0.01% sodium azide, and the cells were incubated in the dark for about 45 minutes at 2-8° C. At the end of the incubation, the cells were washed, re-suspended with FACS buffer, and analyzed with a BD Caliber flow cytometer.

T2 sequence (P01732 22-235): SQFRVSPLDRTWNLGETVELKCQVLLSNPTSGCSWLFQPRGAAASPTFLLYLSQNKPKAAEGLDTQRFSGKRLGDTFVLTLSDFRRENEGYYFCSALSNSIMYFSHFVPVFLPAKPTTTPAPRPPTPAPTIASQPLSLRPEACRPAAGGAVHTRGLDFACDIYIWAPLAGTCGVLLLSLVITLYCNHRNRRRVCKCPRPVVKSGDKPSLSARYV

B1: CD3 mAb 2/CD8 mAb 1/B7-H3 mAb 1 Tri-Specific Binding Molecule (other)
chain 1: DVQINQSPSFLAASPGETITINCRTSRSISQYLAWYQEKPGKTNKLLIYSGSTLQSGIPSRFSGSGSGTDFTLTISGLEPEDFAMYYCQQHNENPLTFGAGTKLELRGGGSGGGGEVQLVESGGGLVQPGGSLRLSCAASGFTFSTYAMNWVRQAPGKGLEWVGRIRSKYNNYATYYADSVKGRFTISRDDSKNSLYLQMNSLKTEDTAVYYCVRHGNFGNSYVSWFAYWGQGTLVTVSSGGCGGGEVAALEKEVAALEKEVAALEKEVAALEKGGGDKTHTCPPCPAPEAAGGPSVFLFPPKPKDTLMISRTPEVTCVVVDVSHEDPEVKFNWYVDGVEVHNAKTKPREEQYNSTYRVVSVLTVLHQDWLNGKEYKCKVSNKALPAPIEKTISKAKGQPREPQVYTLPPSREEMTKNQVSLWCLVKGFYPSDIAVEWESNGQPENNYKTTPPVLDSDGSFFLYSKLTVDKSRWQQGNVFSCSVMHEALHNHYTQKSLSLSPGK
chain 2: QAVVTQEPSLTVSPGGTVTLTCRSSTGAVTTSNYANWVQQKPGQAPRGLIGGTNKRAPWTPARFSGSLLGGKAALTITGAQAEDEADYYCALWYSNLWVFGGGTKLTVLGGGGSGGGGEVQLQQSGAELVKPGASVKLSCTASGFNIKDTYIHFVRQRPEQGLEWIGRIDPANDNTLYASKFQGKATITADTSSNTAYMHLCSLTSGDTAVYYCGRGYGYYVFDHWGQGTTLTVSSGGCGGGKVAALKEKVAALKEKVAALKEKVAALKE
heavy: QVQLVQSGAEVKKPGASVKVSCKASGYTFTSYWMQWVRQAPGQGLEWMGTIYPGDGDTRYTQKFKGRVTITADKSTSTAYMELSSLRSEDTAVYYCARRGIPRLWYFDVWGQGTTVTVSSASTKGPSVFPLAPSSKSTSGGTAALGCLVKDYFPEPVTVSWNSGALTSGVHTFPAVLQSSGLYSLSSVVTVPSSSLGTQTYICNVNHKPSNTKVDKRVEPKSCDKTHTCPPCPAPEAAGGPSVFLFPPKPKDTLMISRTPEVTCVVVDVSHEDPEVKFNWYVDGVEVHNAKTKPREEQYNSTYRVVSVLTVLHQDWLNGKEYKCKVSNKALPAPIEKTISKAKGQPREPQVYTLPPSREEMTKNQVSLSCAVKGFYPSDIAVEWESNGQPENNYKTTPPVLDSDGSFFLVSKLTVDKSRWQQGNVFSCSVMHEALHNRYTQKSLSLSPGK
light: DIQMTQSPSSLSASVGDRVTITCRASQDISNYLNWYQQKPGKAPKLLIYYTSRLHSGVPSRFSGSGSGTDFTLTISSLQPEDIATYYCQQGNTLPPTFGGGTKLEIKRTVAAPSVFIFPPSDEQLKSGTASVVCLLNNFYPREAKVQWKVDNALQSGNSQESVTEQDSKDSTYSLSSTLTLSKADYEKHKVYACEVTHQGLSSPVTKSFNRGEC
notes: Site A CD3, Site B CD8, Site C B7-H3
EC50 (nM) of killing, CD4+ effector cells, JIMT1-luc target cells, E:T 5:1 [1]: 0.105 nM | EC50 (nM) of killing, CD8+ effector cells, JIMT1-luc target cells, E:T 5:1 [1]: 0.0053 nM | EC50 (nM) of killing, PanT effector cells, JIMT1-luc target cells, E:T 5:1 [1]: 0.0113 nM | EC50 (read off the curve) [2]: ~2 nM

B2: 5T4 mAb 2/CD3 mAb 2/CD8 mAb 1 Tri-Specific Binding Molecule (other)
chain 1: DVLMTQTPLSLPVSLGDQASISCRSSQSIVYSNGNTYLEWYLQKPGQSPKLLIYKVSNRFSGVPDRFSGSGSGTDFTLKISRVEAEDLGVYYCFQGSHVPFTFGSGTKLEIKGGGSGGGGEVQLVESGGGLVQPGGSLRLSCAASGFTFSTYAMNWVRQAPGKGLEWVGRIRSKYNNYATYYADSVKGRFTISRDDSKNSLYLQMNSLKTEDTAVYYCVRHGNFGNSYVSWFAYWGQGTLVTVSSGGCGGGEVAALEKEVAALEKEVAALEKEVAALEKGGGDKTHTCPPCPAPEAAGGPSVFLFPPKPKDTLMISRTPEVTCVVVDVSHEDPEVKFNWYVDGVEVHNAKTKPREEQYNSTYRVVSVLTVLHQDWLNGKEYKCKVSNKALPAPIEKTISKAKGQPREPQVYTLPPSREEMTKNQVSLWCLVKGFYPSDIAVEWESNGQPENNYKTTPPVLDSDGSFFLYSKLTVDKSRWQQGNVFSCSVMHEALHNHYTQKSLSLSPGK
chain 2: QAVVTQEPSLTVSPGGTVTLTCRSSTGAVTTSNYANWVQQKPGQAPRGLIGGTNKRAPWTPARFSGSLLGGKAALTITGAQAEDEADYYCALWYSNLWVFGGGTKLTVLGGGGSGGGGQVQLQQPGAELVKPGASVKMSCKASGYTFTSYWITWVKQRPGQGLEWIGDIYPGSGRANYNEKFKSKATLTVDTSSSTAYMQLSSLTSEDSAVYNCARYGPLFTTVVDPNSYAMDYWGQGTSVTVSSGGCGGGKVAALKEKVAALKEKVAALKEKVAALKE
heavy: EVQLQQSGAELVKPGASVKLSCTASGFNIKDTYIHFVRQRPEQGLEWIGRIDPANDNTLYASKFQGKATITADTSSNTAYMHLCSLTSGDTAVYYCGRGYGYYVFDHWGQGTTLTVSSASTKGPSVFPLAPSSKSTSGGTAALGCLVKDYFPEPVTVSWNSGALTSGVHTFPAVLQSSGLYSLSSVVTVPSSSLGTQTYICNVNHKPSNTKVDKRVEPKSCDKTHTCPPCPAPEAAGGPSVFLFPPKPKDTLMISRTPEVTCVVVDVSHEDPEVKFNWYVDGVEVHNAKTKPREEQYNSTYRVVSVLTVLHQDWLNGKEYKCKVSNKALPAPIEKTISKAKGQPREPQVYTLPPSREEMTKNQVSLSCAVKGFYPSDIAVEWESNGQPENNYKTTPPVLDSDGSFFLVSKLTVDKSRWQQGNVFSCSVMHEALHNRYTQKSLSLSPGK
light: DVQINQSPSFLAASPGETITINCRTSRSISQYLAWYQEKPGKTNKLLIYSGSTLQSGIPSRFSGSGSGTDFTLTISGLEPEDFAMYYCQQHNENPLTFGAGTKLELRRTVAAPSVFIFPPSDEQLKSGTASVVCLLNNFYPREAKVQWKVDNALQSGNSQESVTEQDSKDSTYSLSSTLTLSKADYEKHKVYACEVTHQGLSSPVTKSFNRGEC
EC50 (nM) of killing, CD4+ effector cells, JIMT1-luc target cells, E:T 5:1 [3]: 0.0435 nM | EC50 (nM) of killing, CD8+ effector cells, JIMT1-luc target cells, E:T 5:1 [3]: 0.0013 nM | EC50 (nM) of killing, PanT effector cells, JIMT1-luc target cells, E:T 5:1 [3]: 0.002 nM | EC50 (read off the curve) [4]: ~2 nM

B3: HIV mAb 1/CD3 mAb 2/CD8 mAb 1 Tri-Specific Binding Molecule (other)
chain 1: DIVMTQSPDSLAVSPGERATIHCKSSQTLLYSSNNRHSIAWYQQRPGQPPKLLLYWASMRLSGVPDRFSGSGSGTDFTLTINNLQAEDVAIYYCHQYSSHPPTFGHGTRVEIKGGGSGGGGEVQLVESGGGLVQPGGSLRLSCAASGFTFSTYAMNWVRQAPGKGLEWVGRIRSKYNNYATYYADSVKGRFTISRDDSKNSLYLQMNSLKTEDTAVYYCVRHGNFGNSYVSWFAYWGQGTLVTVSSASTKGEVAACEKEVAALEKEVAALEKEVAALEKGGGDKTHTCPPCPAPEAAGGPSVFLFPPKPKDTLMISRTPEVTCVVVDVSHEDPEVKFNWYVDGVEVHNAKTKPREEQYNSTYRVVSVLTVLHQDWLNGKEYKCKVSNKALPAPIEKTISKAKGQPREPQVYTLPPSREEMTKNQVSLWCLVKGFYPSDIAVEWESNGQPENNYKTTPPVLDSDGSFFLYSKLTVDKSRWQQGNVFSCSVMHEALHNHYTQKSLSLSPGK
chain 2: QAVVTQEPSLTVSPGGTVTLTCRSSTGAVTTSNYANWVQQKPGQAPRGLIGGTNKRAPWTPARFSGSLLGGKAALTITGAQAEDEADYYCALWYSNLWVFGGGTKLTVLGGGGSGGGGQVQLVQSGGGVFKPGGSLRLSCEASGFTFTEYYMTWVRQAPGKGLEWLAYISKNGEYSKYSPSSNGRFTISRDNAKNSVFLQLDRLSADDTAVYYCARADGLTYFSELLQYIFDLWGQGARVTVSSASTKGKVAACKEKVAALKEKVAALKEKVAALKE
heavy: EVQLQQSGAELVKPGASVKLSCTASGFNIKDTYIHFVRQRPEQGLEWIGRIDPANDNTLYASKFQGKATITADTSSNTAYMHLCSLTSGDTAVYYCGRGYGYYVFDHWGQGTTLTVSSASTKGPSVFPLAPSSKSTSGGTAALGCLVKDYFPEPVTVSWNSGALTSGVHTFPAVLQSSGLYSLSSVVTVPSSSLGTQTYICNVNHKPSNTKVDKRVEPKSCDKTHTCPPCPAPEAAGGPSVFLFPPKPKDTLMISRTPEVTCVVVDVSHEDPEVKFNWYVDGVEVHNAKTKPREEQYNSTYRVVSVLTVLHQDWLNGKEYKCKVSNKALPAPIEKTISKAKGQPREPQVYTLPPSREEMTKNQVSLSCAVKGFYPSDIAVEWESNGQPENNYKTTPPVLDSDGSFFLVSKLTVDKSRWQQGNVFSCSVMHEALHNRYTQKSLSLSPG
light: B2 light
EC50, nM, % cytotoxicity (LDH), Jurkat Cells 522FY, CD4 effector cells [5]: 0.36 nM | EC50, nM, % cytotoxicity (LDH), Jurkat Cells 522FY, CD8 effector cells [5]: 0.00781 nM | EC50, nM, % cytotoxicity (LDH), Jurkat Cells 522FY, Pan T effector cells [5]: 0.044 nM | EC50 nM, % cytotoxicity (LDH), Jurkat Cells 522FY, E/T = 5:1 [6]: 0.00019 nM | EC50 nM, % cytotoxicity (LDH), Jurkat Cells 522FY, E/T = 10:1 [6]: 0.00029 nM | EC50 (read off the curve) [7]: ~0.8 nM

B4: 5T4 mAb 2/CD3 mAb 2/CD8 mAb 2 Tri-Specific Binding Molecule (other)
chain 1: B2 chain 1
chain 2: B2 chain 2
heavy: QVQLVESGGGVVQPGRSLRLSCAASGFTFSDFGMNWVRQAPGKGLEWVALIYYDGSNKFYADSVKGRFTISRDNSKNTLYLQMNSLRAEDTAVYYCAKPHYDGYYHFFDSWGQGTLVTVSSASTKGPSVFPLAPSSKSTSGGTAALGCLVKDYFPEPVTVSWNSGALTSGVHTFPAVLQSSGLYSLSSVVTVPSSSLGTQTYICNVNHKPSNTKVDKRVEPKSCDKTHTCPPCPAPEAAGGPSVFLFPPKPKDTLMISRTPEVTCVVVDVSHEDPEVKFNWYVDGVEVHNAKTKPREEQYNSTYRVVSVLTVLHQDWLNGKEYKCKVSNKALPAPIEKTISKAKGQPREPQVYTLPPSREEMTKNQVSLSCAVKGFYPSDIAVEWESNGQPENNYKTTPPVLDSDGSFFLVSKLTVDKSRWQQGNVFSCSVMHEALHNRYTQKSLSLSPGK
light: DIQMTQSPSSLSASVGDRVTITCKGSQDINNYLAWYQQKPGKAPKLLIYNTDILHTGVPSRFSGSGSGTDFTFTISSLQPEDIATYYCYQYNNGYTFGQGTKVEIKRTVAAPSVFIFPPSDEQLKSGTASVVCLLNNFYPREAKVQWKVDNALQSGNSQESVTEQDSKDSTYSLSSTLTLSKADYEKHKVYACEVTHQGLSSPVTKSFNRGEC
EC50 (nM) of killing, CD4+ effector cells, JIMT1-luc target cells, E:T 5:1 [3]: 0.0336 nM | EC50 (nM) of killing, CD8+ effector cells, JIMT1-luc target cells, E:T 5:1 [3]: 0.0015 nM | EC50 (nM) of killing, PanT effector cells, JIMT1-luc target cells, E:T 5:1 [3]: 0.0018 nM | EC50 (read off the curve) [4]: ~2 nM
